The chains are these.
B1: 17T, 72A (protein, listed as Rattus norvegicus)
chain: AFDGTWKVDRNENYEKTMEKMGINVVKRKLGAHDNLKLTITQEGNKFTVKESSNFRNIDVVFELGVDFAYSAADGTELTGTWTMEGNKLVGKFKRVDNGKELIAVREISGNELIQTYTYEGVEAKRIFKKE
modifications: PEPTIDE (1)...(131) wild-type rat intestinal fatty acid binding protein
B2: 18Q, 72A (protein, listed as Rattus norvegicus)
chain: B1 chain with T17F, M18Q
modifications: PEPTIDE (1)...(131) wild-type rat intestinal fatty acid binding protein
B3: 23N1, 72A (protein, listed as Rattus norvegicus)
chain: B1 chain with T17F, I23N
modifications: PEPTIDE (1)...(131) wild-type rat intestinal fatty acid binding protein
B4: 23W1, 72A (protein, listed as Rattus norvegicus)
chain: B1 chain with T17F, I23W
modifications: PEPTIDE (1)...(131) wild-type rat intestinal fatty acid binding protein
B5: 23L3, 72A (protein, listed as Rattus norvegicus)
chain: B1 chain with T17F, I23L
modifications: PEPTIDE (1)...(131) wild-type rat intestinal fatty acid binding protein
B6: 23P1, 72A (protein, listed as Rattus norvegicus)
chain: B1 chain with T17F, I23P
modifications: PEPTIDE (1)...(131) wild-type rat intestinal fatty acid binding protein
B7: 23K1, 72A (protein, listed as Rattus norvegicus)
chain: B1 chain with T17F, I23K
modifications: PEPTIDE (1)...(131) wild-type rat intestinal fatty acid binding protein
B8: 23F2, 72A (protein, listed as Rattus norvegicus)
chain: B1 chain with T17F, I23F
modifications: PEPTIDE (1)...(131) wild-type rat intestinal fatty acid binding protein
B9: 23T1, 72A (protein, listed as Rattus norvegicus)
chain: B1 chain with T17F, I23T
modifications: PEPTIDE (1)...(131) wild-type rat intestinal fatty acid binding protein
B10: 17V, 72A (protein, listed as Rattus norvegicus)
chain: B1 chain with T17V
modifications: PEPTIDE (1)...(131) wild-type rat intestinal fatty acid binding protein
B11: 21W, 72A (protein, listed as Rattus norvegicus)
chain: B1 chain with T17F, M21W
modifications: PEPTIDE (1)...(131) wild-type rat intestinal fatty acid binding protein
B12: 23V2, 72A (protein, listed as Rattus norvegicus)
chain: B1 chain with T17F, I23V
modifications: PEPTIDE (1)...(131) wild-type rat intestinal fatty acid binding protein
B13: 23H1, 72A (protein, listed as Rattus norvegicus)
chain: B1 chain with T17F, I23H
modifications: PEPTIDE (1)...(131) wild-type rat intestinal fatty acid binding protein
B14: 17Y, 72A (protein, listed as Rattus norvegicus)
chain: B1 chain with T17Y
modifications: PEPTIDE (1)...(131) wild-type rat intestinal fatty acid binding protein
B15: 31C1, 72A (protein, listed as Rattus norvegicus)
chain: B1 chain with T17F, G31C
modifications: PEPTIDE (1)...(131) wild-type rat intestinal fatty acid binding protein
B16: 31D2, 72A (protein, listed as Rattus norvegicus)
chain: B1 chain with T17F, G31D
modifications: PEPTIDE (1)...(131) wild-type rat intestinal fatty acid binding protein
B17: 23R3, 72A (protein, listed as Rattus norvegicus)
chain: B1 chain with T17F, I23R
modifications: PEPTIDE (1)...(131) wild-type rat intestinal fatty acid binding protein
B18: 23Y1, 72A (protein, listed as Rattus norvegicus)
chain: B1 chain with T17F, I23Y
modifications: PEPTIDE (1)...(131) wild-type rat intestinal fatty acid binding protein
B19: 17W, 72A (protein, listed as Rattus norvegicus)
chain: B1 chain with T17W
modifications: PEPTIDE (1)...(131) wild-type rat intestinal fatty acid binding protein
B20: 31E3, 72A (protein, listed as Rattus norvegicus)
chain: B1 chain with T17F, G31E
modifications: PEPTIDE (1)...(131) wild-type rat intestinal fatty acid binding protein

Residue numbers refer to the chain shown, from its start. Where “and” joins values, the source holds several entries; their conditions need not be identical. Equal values may be shown once.

The first test can be described thus: Probe fluorescence ratio response to arachidonic acid relative to ADIFAB2. Particulars: arachidonic acid; response relative to ADIFAB2. The test is classed as binding. Put shortly: (§1)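 Fluorescently labeled rat intestinal FABP variants were read at two emission wavelengths, near the unbound maximum (about 420 to 480 nm) and the FFA-bound maximum (about 495 to 580 nm). R = Fλ1/Fλ2 after subtracting probe-free intensity; ΔR = R+agent − R0, normalized to ADIFAB2 (rI-FABP-L72A).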
Take B1: the “DR/DR AA” value is recorded as 0.50.
Take B2: the “DR/DR AA” value turned out to be 0.09.
Still for that read-out and setting: then B3, with 0.12; and B4, with 0.62; and B5, with 1.17.
The same measure, in the same setting: then B6, with 1.25; and B7, with 0.13.
On to B8, for which the “DR/DR AA” value amounted to 0.22.
Same read-out and setting: then B9, with 0.22; and B10, with 0.64 and 0.639.
The same measure, in the same setting: then B11, with 3.70; and B12, with 1.46; and B13, with 0.16.
With B14, the “DR/DR AA” value was 0.73 and 0.729.
On the same count and under the same terms, then B15, with 0.32; and B16, with 0.20; and B17, with 0.14.
On the same count and under the same terms, then B18, with 0.49; and B19, with 1.42 and 1.421; and B20, with 0.55.

Another test in a line: Probe fluorescence ratio response to linolenic acid relative to ADIFAB2. The class given is binding. The settings on record: response relative to ADIFAB2. Put shortly: as §1
B1: the “DR/DR LNA” value came to 0.51.
On the same count and under the same terms, then B2, with 0.13; and B3, with 0.13.
Same read-out and setting: then B4, with 0.96; and B5, with 1.03; and B6, with 1.38.
On the same count and under the same terms, then B7, with 0.13; and B8, with 0.17.
On to B9, for which the “DR/DR LNA” value is 0.21.
On the same count and under the same terms, then B10, with 0.59 and 0.586; and B11, with 2.40; and B12, with 1.35.
Same read-out and setting: then B13, with 0.17; and B14, with 0.81 and 0.806.
Same read-out and setting: then B15, with 0.36; and B16, with 0.14.
In the case of B17, the “DR/DR LNA” value is recorded as 0.14.
B18: the “DR/DR LNA” value stood at 0.44.
On the same count and under the same terms, then B19, with 1.61 and 1.611.
On the same count and under the same terms, then B20, with 0.82.

A short description of the next test: Probe fluorescence ratio response to linoleic acid relative to ADIFAB2. The class given is binding. The settings on record: response relative to ADIFAB2. Put shortly: as §1
B1: the “DR/DR LA” value is 0.51.
The same measure, in the same setting: then B2, with 0.11.
The same measure, in the same setting: then B3, with 0.13; and B4, with 0.79.
Same read-out and setting: then B5, with 1.04.
Take B6: the “DR/DR LA” value amounted to 1.36.
On the same count and under the same terms, then B7, with 0.14.
On to B8, for which the “DR/DR LA” value is 0.19.
Turning to B9, the “DR/DR LA” value was found to be 0.33.
The same measure, in the same setting: then B10, with 0.55 and 0.549; and B11, with 2.43.
With B12, the “DR/DR LA” value is 1.73.
For B13, the “DR/DR LA” value is reported as 0.13.
The same measure, in the same setting: then B14, with 0.71 and 0.712; and B15, with 0.36; and B16, with 0.16.
As to B17, the “DR/DR LA” value is on record as 0.14.
On the same count and under the same terms, then B18, with 0.44; and B19, with 1.42 and 1.416; and B20, with 0.74.

A short description of a further test: Probe fluorescence ratio response to palmitic acid relative to ADIFAB2. The class given is binding. The settings on record: response relative to ADIFAB2. Put shortly: as §1
For B1, the “DR/DR PA” value was determined as 0.25.
On the same count and under the same terms, then B2, with 0.09; and B3, with 0.10; and B4, with 0.49.
Same read-out and setting: then B5, with 0.93; and B6, with 0.64.
Still for that read-out and setting: then B7, with 0.08; and B8, with 0.12.
As to B9, the “DR/DR PA” value turned out to be 0.24.
For B10, the “DR/DR PA” value was 0.31 and 0.308.
On the same count and under the same terms, then B11, with 1.45; and B12, with 1.48.
Take B13: the “DR/DR PA” value came to 0.13.
Turning to B14, the “DR/DR PA” value was found to be 0.50.
Still for that read-out and setting: then B15, with 0.23; and B16, with 0.06.
The same measure, in the same setting: then B17, with 0.10; and B18, with 0.28; and B19, with 1.07 and 1.067.
On the same count and under the same terms, then B20, with 0.38.

A further test is described as follows: Probe fluorescence ratio response to oleic acid relative to ADIFAB2. The settings on record: response relative to ADIFAB2. The test is classed as binding. Put shortly: as §1
Turning to B1, the “DR/DR OA” value came to 0.49.
Still for that read-out and setting: then B2, with 0.08.
Still for that read-out and setting: then B3, with 0.12; and B4, with 0.45; and B5, with 1.06.
Consider B6, for which the “DR/DR OA” value stood at 1.24.
Same read-out and setting: then B7, with 0.13.
For the molecule B8, the “DR/DR OA” value worked out at 0.20.
As for B9, the “DR/DR OA” value worked out at 0.19.
With B10, the “DR/DR OA” value is 0.56 and 0.558.
Still for that read-out and setting: then B11, with 3.02.
The same measure, in the same setting: then B12, with 1.56; and B13, with 0.11.
Still for that read-out and setting: then B14, with 0.73 and 0.732.
With B15, the “DR/DR OA” value amounted to 0.30.
Same read-out and setting: then B16, with 0.13; and B17, with 0.12; and B18, with 0.41.
The same measure, in the same setting: then B19, with 1.24 and 1.241; and B20, with 0.50.

(Values after patent US20060257938A1, “Method of screening for drugs that block ligand binding to a lipid binding protein” (priority 2005, published 2006).)
